The results in this text go back to the supplement of paper PMC5998384.

In data set [1] the test system is HeLa Kyoto. Briefly: solubility in G1/S (NP-40 vs SDS abundance) (log2 ratio); higher = more soluble. The settings on record: cell cycle stage: G1/S.
The subject of data set [2] is HeLa Kyoto. The data set can be described thus: melting temperature (median over replicates), in situ; higher = more thermally stable.
Data set [3] concerns HeLa Kyoto. The data set can be described thus: solubility change mitosis vs G1/S (difference of NP-40 vs SDS log2 ratios) (log2 ratio difference); higher = more soluble in mitosis.
Data set [4] deals with HeLa Kyoto. Briefly: thermal stability score vs G1/S (z-score of summed log2 fold changes over temperatures); higher = more thermally stable than in G1/S.
Setting [5] is: cell cycle stage: early G1 (4.5 h after nocodazole release).
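Wherever melting temperature (median over replicates), in situ is given: HeLa Kyoto cells synchronized by double thymidine or nocodazole block, proteins quantified by TMT10plex mass spectrometry, three independent biological replicates.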
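Wherever solubility change mitosis vs G1/S (difference of NP-40 vs SDS log2 ratios) is given: synchronized HeLa Kyoto cells (double thymidine block for G1/S, nocodazole release for mitosis), protein amounts in NP-40 versus SDS lysates quantified by mass spectrometry, three biological replicates.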
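Wherever solubility in G1/S (NP-40 vs SDS abundance) is given: HeLa Kyoto cells arrested at G1/S by double thymidine block, proteins quantified by TMT10plex mass spectrometry in mild NP-40 versus SDS extracts, three biological replicates.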
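Wherever thermal stability score vs G1/S (z-score of summed log2 fold changes over temperatures) is given: synchronized HeLa Kyoto cells, proteins quantified by TMT10plex mass spectrometry, three biological replicates, mitosis taken 0.5 h after nocodazole release, G1/S directly after double thymidine block.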

In the case of “MALYQRWRCLRLQGLQACRLHTAVVSTPPRWLAERLGLFEELWAAQVKRLASMAQKEPRTIKISLPGGQKIDAVAWNTTPYQLARQISSTLADTAVAAQVNGEPYDLERPLETDSDLRFLTFDSPEGKAVFWHSSTHVLGAAAEQFLGAVLCRGPSTEYGFYHDFFLGKERTIRGSELPVLERICQELTAAARPFRRLEASRDQLRQLFKDNPFKLHLIEEKVTGPTATVYGCGTLVDLCQGPHLRHTGQIGGLKLLSNSSSLWRSSGAPETLQRVSGISFPTTELLRVWEAWREEAELRDHRRIGKEQELFFFHELSPGSCFFLPRGTRVYNALVAFIRAEYAHRGFSEVKTPTLFSTKLWEQSGHWEHYQEDMFAVQPPGSDRPPSSQSDDSTRHITDTLALKPMNCPAHCLMFAHRPRSWRELPLRLADFGALHRAEASGGLGGLTRLRCFQQDDAHIFCTTDQLEAEIQSCLDFLRSVYAVLGFSFRLALSTRPSGFLGDPCLWDQAEQVLKQALKEFGEPWDLNSGDGAFYGPKIDVHLHDALGRPHQCGTIQLDFQLPLRFDLQYKGQAGALERPVLIHRAVLGSVERLLGVLAESCGGKWPLWLSPFQVVVIPVGSEQEEYAKEAQQSLRAAGLVSDLDADSGLTLSRRIRRAQLAHYNFQFVVGQKEQSKRTVNIRTRDNRRLGEWDLPEAVQRLVELQNTRVPNAEEIF [TARS2]”, the “solubility in G1/S (log2)” value in the data set on HeLa Kyoto [1] was 0.0817. In addition, the values for the melting temperature with HeLa Kyoto [2] (cell cycle stage: G1/S) and in the data set with HeLa Kyoto [2] (cell cycle stage: mitosis) were 51.4 °C and 50.8 °C, respectively. For the same sequence, in the data set with HeLa Kyoto [3], the “solubility change mitosis (log2)” value is -0.134. Further, the thermal stability score in the data set with HeLa Kyoto [4] (setting [5]) was -1.35; in the data set on HeLa Kyoto [4] (cell cycle stage: mitosis), -0.229.
Turning to “MAMARLGSWLGEAQWLALVSLFVAALATVGLYLAQWALARARPQPQRRAVEPGEGPRPGSDALLSWILTLGSWRSQWQAAWVTALNEEAERKGGPPFLSFEEDPRQQALELVVQEVSSVLRSAEEKVVVCHVVGQAIQFLVSETPALGAGCRLYDMRLSPFHLQLEFHMKEKREDLQISWSFISVPEMAVNIQPKALGEDQVAETSAMSDVLKDILKHLAGSASPSVVLITKPTTVKEAQNLQCAASTAQESCPPKPPRAHELKLLVRNIHVLLLSEPGASGHINAVCVVQLNDPVQRFSSTLTKNTPDLMWEEEFTFELNAKSKELHLQISEAGRSSEGLLATATVPLDLFKKQPSGPQSFTLTSGSACGSSVLGSVTAEFSYMEPGELKSWPIPPPVPAAKIEKDRTVMPCGTVVTTVTAVKTKPRVDVGRASPLSSDSPVKTPIKVKVIEKDISVQAIACRSAPVSKTLSSSDTELLVLNGSDPVAEVAIRQLSESSKLKLKSPRKKSTIIISGISKTSLSQDHDAALMQGYTASVDSTHQEDAPSHPERAAASAPPEEAESAQASLAPKPQEDELDSWDLEKEPQAAAWSSQVLLDPDGDELSESSMSVLEPGTAKKHKGGILRKGAKLFFRRRHQQKDPGMSQSHNDLVFLEQPEGSRRKGITLTRILNKKLLSRHRNKNTMNGAPVEPCT [C2CD2]”, in the data set on HeLa Kyoto [1], the “solubility in G1/S (log2)” value was 0.0136. In addition, the melting temperature in the data set with HeLa Kyoto [2] (cell cycle stage: G1/S) stood at 50.9 °C. Further, the “solubility change mitosis (log2)” value in the data set with HeLa Kyoto [3] amounted to 0.0576. In addition, the thermal stability score in the data set on HeLa Kyoto [4] (setting [5]) stood at 0.427; with HeLa Kyoto [4] (cell cycle stage: mitosis), 1.24.
For “MAMGLFRVCLVVVTAIINHPLLFPRENATVPENEEEIIRKMQAHQEKLQLEQLRLEEEVARLAAEKEALEQVAEEGRQQNETRVAWDLWSTLCMILFLMIEVWRQDHQEGPSPECLGGEEDELPGLGGAPLQGLTLPNKATLGHFYERCIRGATADAARTREFLEGFVDDLLEALRSLCNRDTDMEVEDFIGVDSMYENWQVDRPLLCHLFVPFTPPEPYRFHPELWCSGRSVPLDRQGYGQIKVVRADGDTLSCICGKTKLGEDMLCLLHGRNSMAPPCGDMENLLCATDSLYLDTMQVMKWFQTALTRAWKGIAHKYEFDLAFGQLDSPGSLKIKFRSGKFMPFNLIPVIQCDDSDLYFVSHLPREPSEGTPASSTDWLLSFAVYERHFLRTTLKALPEGACHLSCLQIASFLLSKQSRLTGPSGLSSYHLKTALLHLLLLRQAADWKAGQLDARLHELLCFLEKSLLQKKLHHFFIGNRKVPEAMGLPEAVLRAEPLNLFRPFVLQRSLYRKTLDSFYEMLKNAPALISEYSLHVPSDQPTPKS [ITPRIP]”, in that order: 0.169, 52 °C, -0.1, -0.0632 and -0.00908.
In the case of “MAMLRVQPEAQAKVDVFREDLCTKTENLLGSYFPKKISELDAFLKEPALNEANLSNLKAPLDIPVPDPVKEKEKEERKKQQEKEDKDEKKKGEDEDKGPPCGPVNCNEKIVVLLQRLKPEIKDVIEQLNLVTTWLQLQIPRIEDGNNFGVAVQEKVFELMTSLHTKLEGFHTQISKYFSERGDAVTKAAKQPHVGDYRQLVHELDEAEYRDIRLMVMEIRNAYAVLYDIILKNFEKLKKPRGETKGMIY [PSME1]”, in the data set on HeLa Kyoto [1], the “solubility in G1/S (log2)” value turned out to be 0.819. The melting temperature in the data set with HeLa Kyoto [2] (cell cycle stage: G1/S) was found to be 52.4 °C; with HeLa Kyoto [2] (cell cycle stage: mitosis) it was 53.8 °C. The “solubility change mitosis (log2)” value in the data set on HeLa Kyoto [3] came out at 0.0323. For the same sequence, the thermal stability score is -2.91 with HeLa Kyoto [4] (setting [5]) and -1.23 in the data set with HeLa Kyoto [4] (cell cycle stage: mitosis).
“MAMQAAKRANIRLPPEVNRILYIRNLPYKITAEEMYDIFGKYGPIRQIRVGNTPETRGTAYVVYEDIFDAKNACDHLSGFNVCNRYLVVLYYNANRAFQKMDTKKKEEQLKLLKEKYGINTDPPK [SF3B6]”: in the data set with HeLa Kyoto [1], the “solubility in G1/S (log2)” value is -0.381. Also, the results for the melting temperature in the data set with HeLa Kyoto [2] (cell cycle stage: G1/S) and in the data set with HeLa Kyoto [2] (cell cycle stage: mitosis) were 51.1 °C and 51.2 °C, respectively. The “solubility change mitosis (log2)” value with HeLa Kyoto [3] stood at 0.618. Besides, the figures for the thermal stability score in the data set on HeLa Kyoto [4] (setting [5]) and with HeLa Kyoto [4] (cell cycle stage: mitosis) were -2.41 and -2.34, respectively.
For “MAMRQTPLTCSGHTRPVVDLAFSGITPYGYFLISACKDGKPMLRQGDTGDWIGTFLGHKGAVWGATLNKDATKAATAAADFTAKVWDAVSGDELMTLAHKHIVKTVDFTQDSNYLLTGGQDKLLRIYDLNKPEAEPKEISGHTSGIKKALWCSEDKQILSADDKTVRLWDHATMTEVKSLNFNMSVSSMEYIPEGEILVITYGRSIAFHSAVSLDPIKSFEAPATINSASLHPEKEFLVAGGEDFKLYKYDYNSGEELESYKGHFGPIHCVRFSPDGELYASGSEDGTLRLWQTVVGKTYGLWKCVLPEEDSGELAKPKIGFPETTEEELEEIASENSDCIFPSAPDVKA [STRAP]”, in the data set with HeLa Kyoto [1], the “solubility in G1/S (log2)” value was 0.14. Moreover, the melting temperature in the data set on HeLa Kyoto [2] (cell cycle stage: G1/S) was 52.3 °C; with HeLa Kyoto [2] (cell cycle stage: mitosis), 52.2 °C. The “solubility change mitosis (log2)” value in the data set on HeLa Kyoto [3] is -0.127. In addition, the thermal stability score was -1.2 in the data set with HeLa Kyoto [4] (setting [5]) and -3.1 with HeLa Kyoto [4] (cell cycle stage: mitosis).
